Values of other authors as cited in PMC5488749.
Read-outs that look alike come from different tables or passages of the source.

Experiments:
[1] = biological target: neurexin1 C-terminal peptide (Homo sapiens) (UniProt Q9ULB1)
[2] = biological target: Caspr4 C-terminal peptide (Homo sapiens) (UniProt Q9C0A0)
[3] = biological target: Caspr4 C-terminal peptide (Homo sapiens) (UniProt Q9C0A0); remark: listed apart in the source
[4] = biological target: neurexin1 C-terminal peptide (Homo sapiens) (UniProt Q9ULB1); remark: listed apart in the source

UniProt Q9C0A0, sequence (Q9C0A0 whole entry, looked up, tested part not stated): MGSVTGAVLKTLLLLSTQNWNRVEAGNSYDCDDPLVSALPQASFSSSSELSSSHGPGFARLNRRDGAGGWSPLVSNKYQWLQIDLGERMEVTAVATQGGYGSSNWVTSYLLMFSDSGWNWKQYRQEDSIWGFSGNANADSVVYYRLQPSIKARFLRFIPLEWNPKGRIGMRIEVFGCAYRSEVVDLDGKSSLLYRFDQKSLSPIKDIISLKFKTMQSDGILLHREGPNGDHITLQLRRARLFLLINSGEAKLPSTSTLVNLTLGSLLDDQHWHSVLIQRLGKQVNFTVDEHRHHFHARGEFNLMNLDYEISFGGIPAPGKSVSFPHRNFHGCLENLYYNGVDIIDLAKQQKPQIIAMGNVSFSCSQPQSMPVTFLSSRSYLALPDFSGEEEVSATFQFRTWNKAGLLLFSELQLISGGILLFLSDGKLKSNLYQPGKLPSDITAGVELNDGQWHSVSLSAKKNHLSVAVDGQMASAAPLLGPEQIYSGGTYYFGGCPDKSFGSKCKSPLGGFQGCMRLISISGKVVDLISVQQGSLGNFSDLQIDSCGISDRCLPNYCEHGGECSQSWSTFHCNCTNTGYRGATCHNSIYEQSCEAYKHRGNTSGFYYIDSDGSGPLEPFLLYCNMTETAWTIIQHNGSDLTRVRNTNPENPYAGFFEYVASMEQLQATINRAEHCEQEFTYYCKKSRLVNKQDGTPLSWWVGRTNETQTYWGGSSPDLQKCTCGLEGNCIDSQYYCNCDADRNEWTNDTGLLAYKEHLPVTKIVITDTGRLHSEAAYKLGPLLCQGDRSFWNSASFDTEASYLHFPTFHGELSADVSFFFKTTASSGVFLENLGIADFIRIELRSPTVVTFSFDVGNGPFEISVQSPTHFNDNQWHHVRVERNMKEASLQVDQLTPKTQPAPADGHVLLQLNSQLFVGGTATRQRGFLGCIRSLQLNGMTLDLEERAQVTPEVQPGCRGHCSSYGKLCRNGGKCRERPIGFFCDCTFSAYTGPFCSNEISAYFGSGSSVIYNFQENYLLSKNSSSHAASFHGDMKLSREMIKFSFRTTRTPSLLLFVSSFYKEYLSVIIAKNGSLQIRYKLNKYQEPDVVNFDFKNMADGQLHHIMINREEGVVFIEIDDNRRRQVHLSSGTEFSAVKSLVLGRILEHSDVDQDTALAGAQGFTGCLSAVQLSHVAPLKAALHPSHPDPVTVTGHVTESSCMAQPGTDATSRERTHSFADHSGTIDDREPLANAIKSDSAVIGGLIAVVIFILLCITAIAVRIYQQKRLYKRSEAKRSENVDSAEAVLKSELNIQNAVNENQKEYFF
UniProt Q9ULB1, sequence (Q9ULB1 whole entry, looked up, tested part not stated): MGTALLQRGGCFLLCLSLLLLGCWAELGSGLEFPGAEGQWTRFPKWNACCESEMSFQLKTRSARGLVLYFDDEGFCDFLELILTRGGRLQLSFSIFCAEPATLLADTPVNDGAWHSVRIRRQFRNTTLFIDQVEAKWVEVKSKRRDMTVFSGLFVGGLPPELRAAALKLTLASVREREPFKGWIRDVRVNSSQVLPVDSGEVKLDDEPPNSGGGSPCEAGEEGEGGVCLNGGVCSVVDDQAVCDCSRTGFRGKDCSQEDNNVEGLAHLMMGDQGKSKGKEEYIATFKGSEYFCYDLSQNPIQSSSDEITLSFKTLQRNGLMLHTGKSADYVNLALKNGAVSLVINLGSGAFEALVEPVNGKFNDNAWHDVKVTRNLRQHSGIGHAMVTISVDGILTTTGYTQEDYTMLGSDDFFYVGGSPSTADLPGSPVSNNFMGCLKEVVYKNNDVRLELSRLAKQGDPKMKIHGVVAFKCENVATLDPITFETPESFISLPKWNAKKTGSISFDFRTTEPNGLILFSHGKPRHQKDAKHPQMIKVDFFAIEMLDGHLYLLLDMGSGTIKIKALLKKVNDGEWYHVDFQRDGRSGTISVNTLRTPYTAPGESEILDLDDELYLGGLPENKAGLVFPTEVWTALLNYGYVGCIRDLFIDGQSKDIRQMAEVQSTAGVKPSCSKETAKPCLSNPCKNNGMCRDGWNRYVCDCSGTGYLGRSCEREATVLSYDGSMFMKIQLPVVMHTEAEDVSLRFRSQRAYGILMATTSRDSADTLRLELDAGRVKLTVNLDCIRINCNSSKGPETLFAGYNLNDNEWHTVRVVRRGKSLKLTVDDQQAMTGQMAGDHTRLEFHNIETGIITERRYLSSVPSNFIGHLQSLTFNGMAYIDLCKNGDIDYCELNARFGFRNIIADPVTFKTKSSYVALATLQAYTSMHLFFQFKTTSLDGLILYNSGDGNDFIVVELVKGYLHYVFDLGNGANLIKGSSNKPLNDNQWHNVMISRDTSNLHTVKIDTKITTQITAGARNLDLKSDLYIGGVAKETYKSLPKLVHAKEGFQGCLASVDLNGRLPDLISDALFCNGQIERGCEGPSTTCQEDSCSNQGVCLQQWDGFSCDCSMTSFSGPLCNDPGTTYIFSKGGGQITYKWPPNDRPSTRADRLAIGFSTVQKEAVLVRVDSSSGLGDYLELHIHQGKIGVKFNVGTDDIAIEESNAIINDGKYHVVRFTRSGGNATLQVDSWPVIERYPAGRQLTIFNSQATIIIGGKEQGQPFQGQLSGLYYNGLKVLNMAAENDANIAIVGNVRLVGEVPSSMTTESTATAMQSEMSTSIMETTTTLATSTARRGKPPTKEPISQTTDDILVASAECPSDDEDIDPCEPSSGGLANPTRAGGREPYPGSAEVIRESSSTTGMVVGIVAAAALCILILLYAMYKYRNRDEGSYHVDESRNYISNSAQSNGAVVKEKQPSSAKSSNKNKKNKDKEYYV

Kd [1] | Kd [2] | Kd [3] | Kd [4] | Substance
2400 µM | 18 µM | – | – | Tiam1 PDZ (from UniProt Q13009)
– | – | 3 µM | 5 µM | Tiam2 PDZ (from UniProt Q8IVF5)
